Laboratory results taken from publication PMC4052767.

The substances below were run against Hat1p/Hat2p/H4_(1-48) complex (yeast (Saccharomyces cerevisiae) | yeast) (UniProt Q12341) (assay: ITC).
Chain of Hat1p/Hat2p/H4_(1-48) complex (yeast (Saccharomyces cerevisiae) | yeast) (Q12341 1-320, chain 1 of 3): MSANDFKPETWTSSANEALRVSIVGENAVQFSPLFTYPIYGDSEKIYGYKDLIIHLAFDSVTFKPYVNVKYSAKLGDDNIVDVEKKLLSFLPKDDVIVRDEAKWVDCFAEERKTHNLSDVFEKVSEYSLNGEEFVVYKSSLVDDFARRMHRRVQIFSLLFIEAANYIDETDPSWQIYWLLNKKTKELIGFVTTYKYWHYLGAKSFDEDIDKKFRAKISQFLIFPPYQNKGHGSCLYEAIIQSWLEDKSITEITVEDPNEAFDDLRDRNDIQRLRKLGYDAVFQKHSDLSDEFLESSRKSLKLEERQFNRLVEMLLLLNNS
Chain of Hat1p/Hat2p/H4_(1-48) complex (yeast (Saccharomyces cerevisiae) | yeast) (P39984 whole entry, chain 2 of 3, further chain): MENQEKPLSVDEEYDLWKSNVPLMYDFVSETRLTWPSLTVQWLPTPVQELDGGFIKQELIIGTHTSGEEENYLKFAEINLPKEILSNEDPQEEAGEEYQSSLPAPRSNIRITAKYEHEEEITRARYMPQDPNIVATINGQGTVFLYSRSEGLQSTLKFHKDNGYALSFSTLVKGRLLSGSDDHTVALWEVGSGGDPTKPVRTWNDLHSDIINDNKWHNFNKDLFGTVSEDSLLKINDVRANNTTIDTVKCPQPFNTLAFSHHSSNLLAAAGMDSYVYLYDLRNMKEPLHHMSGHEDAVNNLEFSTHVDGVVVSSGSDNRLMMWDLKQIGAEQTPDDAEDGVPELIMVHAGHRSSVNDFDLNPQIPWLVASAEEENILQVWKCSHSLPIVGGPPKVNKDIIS
Chain of Hat1p/Hat2p/H4_(1-48) complex (yeast (Saccharomyces cerevisiae) | yeast) (P02309 2-49, chain 3 of 3, further chain): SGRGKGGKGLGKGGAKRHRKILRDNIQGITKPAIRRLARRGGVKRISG

Point of comparison: “H3 peptide (residues 1-15), unmodified (from UniProt P61830 2-16)”, Kd 0.34 µM. Against it:
- H3K4me1 peptide — 7.3-fold higher, 2.48 µM
- H3K4me2 peptide — 14-fold higher, 4.78 µM
- H3K4me3 peptide — 34-fold higher, 11.6 µM
